Measured values taken from US20220195012A1.

Columns and labels:
Experiment in all cases: cell-based or functional assay
[1] = biological target: C3b (UniProt P01024)
[2] = biological target: AP C3-convertase (C3bBb) (UniProt P01024)
[3] = biological target: C4b (UniProt P0C0L4)
[4] = substrate: CP C3-convertase (C4b2a) (UniProt P0C0L4)
Sequence of CP C3-convertase (C4b2a) (P0C0L4 757-1446 limits assumed, chain 1 of 4): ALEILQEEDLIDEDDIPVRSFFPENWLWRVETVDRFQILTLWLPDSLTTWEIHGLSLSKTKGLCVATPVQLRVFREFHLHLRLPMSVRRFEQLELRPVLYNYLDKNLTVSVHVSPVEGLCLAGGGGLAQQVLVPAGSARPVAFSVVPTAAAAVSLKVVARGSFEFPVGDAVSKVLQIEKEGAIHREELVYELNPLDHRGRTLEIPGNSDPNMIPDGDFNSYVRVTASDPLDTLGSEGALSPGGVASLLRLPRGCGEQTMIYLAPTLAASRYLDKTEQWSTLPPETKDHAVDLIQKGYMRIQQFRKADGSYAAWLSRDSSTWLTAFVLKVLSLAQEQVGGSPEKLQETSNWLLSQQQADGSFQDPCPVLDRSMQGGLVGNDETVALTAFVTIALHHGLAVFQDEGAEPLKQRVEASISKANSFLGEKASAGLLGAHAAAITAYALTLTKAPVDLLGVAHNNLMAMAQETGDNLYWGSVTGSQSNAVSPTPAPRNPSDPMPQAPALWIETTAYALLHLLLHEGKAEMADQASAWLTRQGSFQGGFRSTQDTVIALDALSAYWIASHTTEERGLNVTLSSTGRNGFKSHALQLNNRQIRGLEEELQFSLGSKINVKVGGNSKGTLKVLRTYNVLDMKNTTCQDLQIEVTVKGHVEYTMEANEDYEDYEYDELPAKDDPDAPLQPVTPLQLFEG
Sequence of CP C3-convertase (C4b2a) (P0C0L4 20-675 limits assumed, chain 2 of 4): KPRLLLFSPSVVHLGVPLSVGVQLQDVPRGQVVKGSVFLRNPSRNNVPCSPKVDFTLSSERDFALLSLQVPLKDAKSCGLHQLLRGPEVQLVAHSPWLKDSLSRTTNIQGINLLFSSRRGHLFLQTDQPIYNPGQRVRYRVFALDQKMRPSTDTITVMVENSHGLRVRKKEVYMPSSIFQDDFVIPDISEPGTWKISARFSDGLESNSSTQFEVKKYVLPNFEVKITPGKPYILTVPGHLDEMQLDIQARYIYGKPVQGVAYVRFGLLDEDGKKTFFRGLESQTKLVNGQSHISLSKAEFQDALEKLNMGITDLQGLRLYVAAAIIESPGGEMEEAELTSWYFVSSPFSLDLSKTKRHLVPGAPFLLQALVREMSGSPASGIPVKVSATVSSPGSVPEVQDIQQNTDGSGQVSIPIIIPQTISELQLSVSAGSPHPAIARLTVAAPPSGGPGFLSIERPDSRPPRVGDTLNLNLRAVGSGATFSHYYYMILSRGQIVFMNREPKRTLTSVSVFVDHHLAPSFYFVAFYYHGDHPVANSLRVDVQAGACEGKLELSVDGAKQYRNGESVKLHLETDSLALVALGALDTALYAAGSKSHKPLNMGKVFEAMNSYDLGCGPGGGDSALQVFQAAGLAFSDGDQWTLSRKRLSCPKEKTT
Sequence of CP C3-convertase (C4b2a) (P0C0L4 1454-1744 limits assumed, chain 3 of 4): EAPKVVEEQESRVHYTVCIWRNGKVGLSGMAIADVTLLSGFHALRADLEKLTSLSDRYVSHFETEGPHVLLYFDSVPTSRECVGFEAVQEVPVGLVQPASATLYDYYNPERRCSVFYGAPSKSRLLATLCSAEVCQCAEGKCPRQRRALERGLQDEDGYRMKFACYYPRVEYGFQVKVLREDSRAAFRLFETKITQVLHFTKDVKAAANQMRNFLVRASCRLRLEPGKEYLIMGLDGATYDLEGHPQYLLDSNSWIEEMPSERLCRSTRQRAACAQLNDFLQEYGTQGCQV
Sequence of CP C3-convertase (C4b2a) (P06681 244-752 limits assumed, chain 4 of 4, further chain): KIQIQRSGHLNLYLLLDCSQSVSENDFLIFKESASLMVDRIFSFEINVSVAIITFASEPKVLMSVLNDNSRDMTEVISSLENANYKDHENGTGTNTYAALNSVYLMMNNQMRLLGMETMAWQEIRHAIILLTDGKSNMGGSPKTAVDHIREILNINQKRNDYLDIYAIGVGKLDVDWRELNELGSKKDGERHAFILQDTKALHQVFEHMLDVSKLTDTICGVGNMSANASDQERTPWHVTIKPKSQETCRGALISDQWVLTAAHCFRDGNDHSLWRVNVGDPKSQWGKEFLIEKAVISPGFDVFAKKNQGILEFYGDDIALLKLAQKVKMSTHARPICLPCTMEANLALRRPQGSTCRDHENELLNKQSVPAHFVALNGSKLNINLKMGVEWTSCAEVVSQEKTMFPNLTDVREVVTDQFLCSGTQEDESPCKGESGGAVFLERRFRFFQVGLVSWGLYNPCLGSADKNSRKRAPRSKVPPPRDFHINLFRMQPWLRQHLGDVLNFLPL

Sequence of AP C3-convertase (C3bBb) (P01024 23-667 limits assumed, chain 1 of 3): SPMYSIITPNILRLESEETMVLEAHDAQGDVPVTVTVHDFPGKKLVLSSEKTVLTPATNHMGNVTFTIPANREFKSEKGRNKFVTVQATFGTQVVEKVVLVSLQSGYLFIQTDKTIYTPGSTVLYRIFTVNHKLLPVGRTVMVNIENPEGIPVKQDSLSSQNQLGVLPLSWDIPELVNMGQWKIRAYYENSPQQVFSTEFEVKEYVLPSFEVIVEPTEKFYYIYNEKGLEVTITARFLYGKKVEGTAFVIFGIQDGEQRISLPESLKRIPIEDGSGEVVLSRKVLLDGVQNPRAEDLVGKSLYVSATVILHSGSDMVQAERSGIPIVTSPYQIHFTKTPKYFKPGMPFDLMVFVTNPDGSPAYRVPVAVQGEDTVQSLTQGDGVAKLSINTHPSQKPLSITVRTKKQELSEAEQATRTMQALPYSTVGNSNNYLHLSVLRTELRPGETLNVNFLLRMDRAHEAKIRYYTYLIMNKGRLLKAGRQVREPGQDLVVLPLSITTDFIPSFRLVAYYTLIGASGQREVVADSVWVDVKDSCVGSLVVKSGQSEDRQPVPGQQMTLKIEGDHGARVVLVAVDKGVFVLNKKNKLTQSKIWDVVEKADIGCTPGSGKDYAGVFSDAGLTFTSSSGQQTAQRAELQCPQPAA
Sequence of AP C3-convertase (C3bBb) (P01024 749-1663 limits assumed, chain 2 of 3): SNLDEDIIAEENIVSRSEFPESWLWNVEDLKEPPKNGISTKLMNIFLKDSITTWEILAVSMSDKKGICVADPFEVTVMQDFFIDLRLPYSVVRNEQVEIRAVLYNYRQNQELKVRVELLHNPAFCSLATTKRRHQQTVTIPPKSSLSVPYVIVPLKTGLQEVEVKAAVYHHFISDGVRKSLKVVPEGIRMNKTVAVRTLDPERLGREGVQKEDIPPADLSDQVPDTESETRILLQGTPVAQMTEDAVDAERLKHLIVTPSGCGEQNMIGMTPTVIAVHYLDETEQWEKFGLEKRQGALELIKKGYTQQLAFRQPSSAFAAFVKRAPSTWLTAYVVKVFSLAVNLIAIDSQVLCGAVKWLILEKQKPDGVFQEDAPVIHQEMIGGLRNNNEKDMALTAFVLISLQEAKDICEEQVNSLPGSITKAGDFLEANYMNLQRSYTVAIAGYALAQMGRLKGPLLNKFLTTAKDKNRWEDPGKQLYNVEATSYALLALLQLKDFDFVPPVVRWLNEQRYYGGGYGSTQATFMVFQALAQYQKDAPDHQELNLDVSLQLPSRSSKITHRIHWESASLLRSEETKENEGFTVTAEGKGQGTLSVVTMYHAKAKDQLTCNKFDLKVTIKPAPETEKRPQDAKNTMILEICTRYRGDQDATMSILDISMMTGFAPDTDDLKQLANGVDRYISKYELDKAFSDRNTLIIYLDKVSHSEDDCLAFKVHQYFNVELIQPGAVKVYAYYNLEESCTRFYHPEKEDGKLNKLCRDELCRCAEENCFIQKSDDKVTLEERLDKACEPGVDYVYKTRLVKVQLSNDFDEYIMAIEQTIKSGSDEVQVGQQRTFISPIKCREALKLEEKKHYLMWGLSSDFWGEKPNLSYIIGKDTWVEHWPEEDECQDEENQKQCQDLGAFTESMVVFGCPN
Sequence of AP C3-convertase (C3bBb) (P00751 260-764 limits assumed, chain 3 of 3, further chain): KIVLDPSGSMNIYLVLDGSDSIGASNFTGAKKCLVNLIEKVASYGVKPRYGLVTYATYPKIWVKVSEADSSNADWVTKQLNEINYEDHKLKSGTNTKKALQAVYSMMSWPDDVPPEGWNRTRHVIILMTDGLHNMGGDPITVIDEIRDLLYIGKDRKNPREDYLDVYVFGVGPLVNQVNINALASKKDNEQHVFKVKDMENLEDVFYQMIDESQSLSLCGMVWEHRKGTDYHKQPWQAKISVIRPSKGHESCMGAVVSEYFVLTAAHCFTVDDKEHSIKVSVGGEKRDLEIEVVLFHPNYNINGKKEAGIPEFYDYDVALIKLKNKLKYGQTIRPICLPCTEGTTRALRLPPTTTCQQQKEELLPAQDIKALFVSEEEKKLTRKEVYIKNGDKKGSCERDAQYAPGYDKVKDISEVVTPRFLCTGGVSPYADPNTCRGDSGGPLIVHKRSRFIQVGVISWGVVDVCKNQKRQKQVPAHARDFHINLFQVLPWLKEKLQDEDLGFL
Sequence of C3b (P01024 23-667 limits assumed, chain 1 of 2): as the sequence (P01024 23-667 limits assumed, chain 1 of 3) above
Sequence of C3b (P01024 749-1663 limits assumed, chain 2 of 2): as the sequence (P01024 749-1663 limits assumed, chain 2 of 3) above
Sequence of C4b (P0C0L4 757-1446 limits assumed, chain 1 of 3): as the sequence (P0C0L4 757-1446 limits assumed, chain 1 of 4) above
Sequence of C4b (P0C0L4 20-675 limits assumed, chain 2 of 3): as the sequence (P0C0L4 20-675 limits assumed, chain 2 of 4) above
Sequence of C4b (P0C0L4 1454-1744 limits assumed, chain 3 of 3): as the sequence (P0C0L4 1454-1744 limits assumed, chain 3 of 4) above

| Binder | C3b CFA: Time (min.) for 50% cleavage of C3B α′-chain [1] | Relative C3b CFA [1] | AP-DAA IC50 [2] | Relative AP-DAA [2] | C4b CFA: Time (min.) for 50% cleavage of C4B α′-chain [3] | Relative C4b CFA [3] | CP-DAA IC50 [4] | Relative CP-DAA [4] | AP-DAA, fold increase compared to D2M2-4 [2] | AP-DAA, fold less compared to DAF [2] |
| --- | --- | --- | --- | --- | --- | --- | --- | --- | --- | --- |
| D2D3M3M4 (L205K) (protein) CEVPTRLNSASLKQPYITQNYFPVGTVVEYECRPGYRREPSLSPKLTCLQNLKWSTAVEFCKKKSCPNPGEIRNGQIDVPGGILFGATISFSCNTGYKLFGSTSSFCKISGSSVQWSDPLPECREIYCTPPPKIKNGKHTFSEVEVFEYLDAVTYSCDPAPGPDPFSLIGESTIYCGDNSVWSRAAPECKVVKCRFPVVENGKQISGFGKKFYYKATVMFECDKGFYLDGSDTIVCDSNSTWDPPVPKCLKVL | 104 min | 0.8 | > 0.01 µM | 0.2 | 433 min | 1.07 | 9.2 µM | 1.7 |  |  |
| D2D3M3M4 (Multi-5) or DCP (decay-cofactor protein) (protein) CEVPTRLNSASLKQPYITQNYFPVGTVVEYECRPGYRREPSLSPKLTCLQNLKWSTAVEFCKKKSCPNPGEIRNGQIDVPGGILFGATISFSCNTGYKLIGSTSSFCLISGSSVQWSDKLPICEKVLCTPPPKIKNGKHTFSEVEVFEYLDAVTYSCDPAPGPDPFSLIGESTIYCGDNSVWSRAAPECKVVKCRFPVVENGKQISGFGKKFYYKATVMFECDKGFYLDGSDTIVCDSNSTWDPPVPKCLKVL | 3.3 min | 1.5 | 0.0024 µM | 1.3 | 3.1 min | 3 | 12.7 µM | 1.3 |  |  |
| D2D3M3M4 (S199K) (protein) CEVPTRLNSASLKQPYITQNYFPVGTVVEYECRPGYRREPSLSPKLTCLQNLKWSTAVEFCKKKSCPNPGEIRNGQIDVPGGILFGATISFSCNTGYKLFGKTSSFCLISGSSVQWSDPLPECREIYCTPPPKIKNGKHTFSEVEVFEYLDAVTYSCDPAPGPDPFSLIGESTIYCGDNSVWSRAAPECKVVKCRFPVVENGKQISGFGKKFYYKATVMFECDKGFYLDGSDTIVCDSNSTWDPPVPKCLKVL | 18.9 min | 4.4 | 0.0065 µM | 0.3 | 181 min | 2.5 | 23.7 µM | 0.7 |  |  |
| D2D3M3M4 (F197I) (protein) CEVPTRLNSASLKQPYITQNYFPVGTVVEYECRPGYRREPSLSPKLTCLQNLKWSTAVEFCKKKSCPNPGEIRNGQIDVPGGILFGATISFSCNTGYKLIGSTSSFCLISGSSVQWSDPLPECREIYCTPPPKIKNGKHTFSEVEVFEYLDAVTYSCDPAPGPDPFSLIGESTIYCGDNSVWSRAAPECKVVKCRFPVVENGKQISGFGKKFYYKATVMFECDKGFYLDGSDTIVCDSNSTWDPPVPKCLKVL | 49.8 min | 1.7 | 0.0044 µM | 0.3 | 96.7 min | 7 | 30.7 µM | 0.5 |  |  |
| D2D3M3M4 (K195Y) (protein) CEVPTRLNSASLKQPYITQNYFPVGTVVEYECRPGYRREPSLSPKLTCLQNLKWSTAVEFCKKKSCPNPGEIRNGQIDVPGGILFGATISFSCNTGYYLFGSTSSFCLISGSSVQWSDPLPECREIYCTPPPKIKNGKHTFSEVEVFEYLDAVTYSCDPAPGPDPFSLIGESTIYCGDNSVWSRAAPECKVVKCRFPVVENGKQISGFGKKFYYKATVMFECDKGFYLDGSDTIVCDSNSTWDPPVPKCLKVL |  |  | > 0.01 µM | 0.2 | > 540 min | < 0.85 | > 100 µM | 6.2 |  |  |
| D2D3M3M4 (Multi-1) (protein) CEVPTRLNSASLKQPYITQNYFPVGTVVEYECRPGYRREPSLSPKLTCLQNLKWSTAVEFCKKKSCPNPGEIRNGQIDVPGGILFGATISFSCNTGYKLFGSTSSFCLISGSSVQWSDPLPICEKVLCTPPPKIKNGKHTFSEVEVFEYLDAVTYSCDPAPGPDPFSLIGESTIYCGDNSVWSRAAPECKVVKCRFPVVENGKQISGFGKKFYYKATVMFECDKGFYLDGSDTIVCDSNSTWDPPVPKCLKVL | 27.3 min | 3 | 0.0019 µM | 1.1 | 493 min | 1.07 | 22.6 µM | 0.7 |  |  |
| D2D3M3M4 (P216K) (protein) CEVPTRLNSASLKQPYITQNYFPVGTVVEYECRPGYRREPSLSPKLTCLQNLKWSTAVEFCKKKSCPNPGEIRNGQIDVPGGILFGATISFSCNTGYKLFGSTSSFCLISGSSVQWSDKLPECREIYCTPPPKIKNGKHTFSEVEVFEYLDAVTYSCDPAPGPDPFSLIGESTIYCGDNSVWSRAAPECKVVKCRFPVVENGKQISGFGKKFYYKATVMFECDKGFYLDGSDTIVCDSNSTWDPPVPKCLKVL | 30.1 min | 2.7 | 0.0034 µM | 0.6 | 93.3 min | 5 | 21 µM | 0.75 |  |  |

The next lines start with the values.

| C3b CFA: Time (min.) for 50% cleavage of C3B α′-chain [1] | Relative C3b CFA [1] | AP-DAA IC50 [2] | Relative AP-DAA [2] | C4b CFA: Time (min.) for 50% cleavage of C4B α′-chain [3] | Relative C4b CFA [3] | CP-DAA IC50 [4] | Relative CP-DAA [4] | AP-DAA, fold increase compared to D2M2-4 [2] | AP-DAA, fold less compared to DAF [2] | Binder |
| --- | --- | --- | --- | --- | --- | --- | --- | --- | --- | --- |
| 103 min | 0.8 | 0.0037 µM | 0.56 | 513 min | 0.9 | 17.7 µM | 0.9 |  |  | D2D3M3M4 (T200Y) (protein) CEVPTRLNSASLKQPYITQNYFPVGTVVEYECRPGYRREPSLSPKLTCLQNLKWSTAVEFCKKKSCPNPGEIRNGQIDVPGGILFGATISFSCNTGYKLFGSYSSFCLISGSSVQWSDPLPECREIYCTPPPKIKNGKHTFSEVEVFEYLDAVTYSCDPAPGPDPFSLIGESTIYCGDNSVWSRAAPECKVVKCRFPVVENGKQISGFGKKFYYKATVMFECDKGFYLDGSDTIVCDSNSTWDPPVPKCLKVL |
| 74.3 min | 1.1 | 0.0025 µM | 0.9 | 268 min | 8.7 | 15.5 µM | 1 |  |  | D2D3M3M4 (T192E) (protein) CEVPTRLNSASLKQPYITQNYFPVGTVVEYECRPGYRREPSLSPKLTCLQNLKWSTAVEFCKKKSCPNPGEIRNGQIDVPGGILFGATISFSCNEGYKLFGSTSSFCLISGSSVQWSDPLPECREIYCTPPPKIKNGKHTFSEVEVFEYLDAVTYSCDPAPGPDPFSLIGESTIYCGDNSVWSRAAPECKVVKCRFPVVENGKQISGFGKKFYYKATVMFECDKGFYLDGSDTIVCDSNSTWDPPVPKCLKVL |
|  |  |  |  |  |  |  |  | 12.5 fold | 138 fold | D2M2-4 (Tetra) (protein) CEVPTRLNSASLKQPYITQNYFPVGTVVEYECRPGYRRQPSLSPKLTCLQNLKWSTAVEFCKKKSCPNIRDPLNGQAVPANGTYEFGYQMHFICNEGYYLAGEEILYCELKGSVAIWSGKPPICEKVKCTPPPKIKNGKHTFSEVEVFEYLDAVTYSCDPAPGPDPFSLIGESTIYCGDNSVWSRAAPECKVVKCRFPVVENGKQISGFGKKFYYKATVMFECDKGFYLDGSDTIVCDSNSTWDPPVPKCLKVL |
